Key:
[1] = target: LFA-3 surface glycoprotein on the human B-lymphoblastoid line JY (human (endogenous in JY)) (UniProt P19256); experiment: flow cytometry on cells
[2] = target: CD2 ligand on sheep erythrocytes (T11TS, the sheep homologue of LFA-3) (sheep (endogenous in sheep erythrocytes))

Sequence of UniProt P19256 (P19256 29-250): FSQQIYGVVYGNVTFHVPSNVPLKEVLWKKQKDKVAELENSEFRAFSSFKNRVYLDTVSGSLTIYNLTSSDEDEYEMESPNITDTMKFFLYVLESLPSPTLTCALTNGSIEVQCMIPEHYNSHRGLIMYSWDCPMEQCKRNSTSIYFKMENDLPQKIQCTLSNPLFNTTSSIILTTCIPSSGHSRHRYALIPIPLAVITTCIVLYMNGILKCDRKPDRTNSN

percent reduction of specific anti-LFA-3 reactivity at 10 uM T11ex2 [1]: 85%
half-maximal inhibition of sheep erythrocyte-Jurkat T cell rosettes [2]: 0.63 to 1.25 µM
Substance: T11ex2, recombinant soluble CD2 (T11) molecule that corresponds to the two extracellular segment exons (domain or fragment)

From publication PMC2189283
